What was measured:
human CGRP receptor = human CGRP receptor (human, UniProt Q16602 23-461; O60894 27-148); assay: cell-based or functional assay
human PAC1 receptor = target: T1, human PAC1 receptor (human, UniProt P41586 21-468); assay: cell-based or functional assay
T1 sequence: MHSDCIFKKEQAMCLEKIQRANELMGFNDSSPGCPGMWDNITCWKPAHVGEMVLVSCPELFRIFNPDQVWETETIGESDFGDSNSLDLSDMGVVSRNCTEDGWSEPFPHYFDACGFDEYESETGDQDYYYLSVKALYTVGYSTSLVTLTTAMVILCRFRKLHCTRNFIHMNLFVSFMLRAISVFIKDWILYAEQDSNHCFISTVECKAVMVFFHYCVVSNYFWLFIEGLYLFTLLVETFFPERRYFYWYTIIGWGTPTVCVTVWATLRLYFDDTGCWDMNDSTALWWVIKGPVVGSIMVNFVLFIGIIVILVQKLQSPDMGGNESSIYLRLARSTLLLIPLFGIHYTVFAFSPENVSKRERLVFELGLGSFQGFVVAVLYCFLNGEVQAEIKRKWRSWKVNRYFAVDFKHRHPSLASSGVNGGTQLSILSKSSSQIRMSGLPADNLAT

Chain of human CGRP receptor (Q16602 23-461 limits assumed, chain 1 of 2): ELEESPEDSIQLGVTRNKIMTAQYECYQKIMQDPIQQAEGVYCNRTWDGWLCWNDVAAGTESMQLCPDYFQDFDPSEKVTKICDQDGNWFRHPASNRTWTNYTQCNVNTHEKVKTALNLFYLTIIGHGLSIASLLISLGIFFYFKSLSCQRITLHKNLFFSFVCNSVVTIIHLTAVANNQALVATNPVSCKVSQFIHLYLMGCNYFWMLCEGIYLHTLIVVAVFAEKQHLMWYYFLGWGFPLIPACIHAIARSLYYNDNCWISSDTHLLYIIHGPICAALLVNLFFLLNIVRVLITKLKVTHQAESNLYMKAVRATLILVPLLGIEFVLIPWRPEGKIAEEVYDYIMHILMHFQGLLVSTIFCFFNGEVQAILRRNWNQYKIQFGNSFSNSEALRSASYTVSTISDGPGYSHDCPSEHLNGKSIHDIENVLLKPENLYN
Chain of human CGRP receptor (O60894 27-148 limits assumed, chain 2 of 2): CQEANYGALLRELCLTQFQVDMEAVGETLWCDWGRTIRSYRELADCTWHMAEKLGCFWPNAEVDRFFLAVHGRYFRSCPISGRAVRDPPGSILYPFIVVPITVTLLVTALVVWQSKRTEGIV

B1: iPS:386711 (bispecific antibody, human IgG1, lambda, N297G)
light: QSVLTQPPSVSAAPGQKVTISCSGSSSNIGNNYVSWYQQLPGTAPKLLIYDNNKRPSGIPDRFSGSKSGTSATLAITGLQTGDEADYYCGTWDSRLSAVVFGGGTKLTVLGQPKANPTVTLFPPSSEELQANKATLVCLISDFYPGAVTVAWKADGSPVKAGVETTKPSKQSNNKYAASSYLSLTPEQWKSHRSYSCQVTHEGSTVEKTVAPTECS
heavy: not shown
Human CGRP receptor
  Human CGRP Receptor IC50: 0.53 nM
Human PAC1 receptor
  Human PAC1 Receptor IC50: 1210 nM

B2: iPS:386713 (bispecific antibody, human IgG1, lambda, N297G)
light: QSVLTQPPSVSAAPGQKVTISCSGSSSNIGNNYVSWYQQLPGTAPKLLIYDNNKRPSGIPDRFSGSKSGTSATLGITGLQTGDEADYYCGTWDSRLSAVVFGGGTKLTVLGQPKANPTVTLFPPSSEELQANKATLVCLISDFYPGAVTVAWKADGSPVKAGVETTKPSKQSNNKYAASSYLSLTPEQWKSHRSYSCQVTHEGSTVEKTVAPTECS
heavy: not shown
Human CGRP receptor
  Human CGRP Receptor IC50: 0.37 nM
Human PAC1 receptor
  Human PAC1 Receptor IC50: 603 nM

B3: iPS:386725 (bispecific antibody, human IgG1, lambda, N297G)
light: QSVLTQPPSVSAAPGQKVTISCSGSSSNIGNNYVSWYQQLPGTAPKLLIYDNNKRPSGIPDRFSGSKSGTSTTLGITGLQTGDEADYYCGTWDSRLSAVVFGGGTKLTVLGQPKANPTVTLFPPSSEELQANKATLVCLISDFYPGAVTVAWKADGSPVKAGVETTKPSKQSNNKYAASSYLSLTPEQWKSHRSYSCQVTHEGSTVEKTVAPTECS
heavy: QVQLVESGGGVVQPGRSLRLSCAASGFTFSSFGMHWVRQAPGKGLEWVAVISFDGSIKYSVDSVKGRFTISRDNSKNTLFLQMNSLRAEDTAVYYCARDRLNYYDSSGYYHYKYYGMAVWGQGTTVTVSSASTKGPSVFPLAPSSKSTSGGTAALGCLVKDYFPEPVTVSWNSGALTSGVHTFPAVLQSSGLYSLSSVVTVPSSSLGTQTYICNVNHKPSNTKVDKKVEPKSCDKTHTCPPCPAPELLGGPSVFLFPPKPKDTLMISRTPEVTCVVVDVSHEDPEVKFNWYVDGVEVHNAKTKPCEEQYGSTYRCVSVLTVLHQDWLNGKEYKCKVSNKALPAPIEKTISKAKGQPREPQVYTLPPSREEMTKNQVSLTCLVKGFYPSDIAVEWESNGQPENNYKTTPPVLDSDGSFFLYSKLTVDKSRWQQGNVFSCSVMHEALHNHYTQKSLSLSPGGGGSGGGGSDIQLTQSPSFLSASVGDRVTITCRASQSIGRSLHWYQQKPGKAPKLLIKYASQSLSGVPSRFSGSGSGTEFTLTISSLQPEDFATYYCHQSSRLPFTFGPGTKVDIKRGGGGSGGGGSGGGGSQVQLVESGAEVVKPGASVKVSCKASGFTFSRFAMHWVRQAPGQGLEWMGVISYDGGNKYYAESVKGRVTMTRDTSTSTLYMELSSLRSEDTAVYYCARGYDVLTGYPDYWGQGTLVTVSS
Human CGRP receptor
  Human CGRP Receptor IC50: 0.42 nM
Human PAC1 receptor
  Human PAC1 Receptor IC50: 549 nM

B4: iPS:386727 (bispecific antibody, human IgG1, lambda, N297G)
light: QSVLTQPPSVSAAPGQKVTISCSGSSSNIGNNYVSWYQQLPGTAPKLLIYDNNKRPSGIPDRFSGSKSGTSATLGITGLQTGDEADYYCGTWDSRLSAVVFGGGTKLTVLGQPKANPTVTLFPPSSEELQANKATLVCLISDFYPGAVTVAWKADGSPVKAGVETTKPSKQSNNKYAASSYLSLTPEQWKSHRSYSCQVTHEGSTVEKTVAPTECS
heavy: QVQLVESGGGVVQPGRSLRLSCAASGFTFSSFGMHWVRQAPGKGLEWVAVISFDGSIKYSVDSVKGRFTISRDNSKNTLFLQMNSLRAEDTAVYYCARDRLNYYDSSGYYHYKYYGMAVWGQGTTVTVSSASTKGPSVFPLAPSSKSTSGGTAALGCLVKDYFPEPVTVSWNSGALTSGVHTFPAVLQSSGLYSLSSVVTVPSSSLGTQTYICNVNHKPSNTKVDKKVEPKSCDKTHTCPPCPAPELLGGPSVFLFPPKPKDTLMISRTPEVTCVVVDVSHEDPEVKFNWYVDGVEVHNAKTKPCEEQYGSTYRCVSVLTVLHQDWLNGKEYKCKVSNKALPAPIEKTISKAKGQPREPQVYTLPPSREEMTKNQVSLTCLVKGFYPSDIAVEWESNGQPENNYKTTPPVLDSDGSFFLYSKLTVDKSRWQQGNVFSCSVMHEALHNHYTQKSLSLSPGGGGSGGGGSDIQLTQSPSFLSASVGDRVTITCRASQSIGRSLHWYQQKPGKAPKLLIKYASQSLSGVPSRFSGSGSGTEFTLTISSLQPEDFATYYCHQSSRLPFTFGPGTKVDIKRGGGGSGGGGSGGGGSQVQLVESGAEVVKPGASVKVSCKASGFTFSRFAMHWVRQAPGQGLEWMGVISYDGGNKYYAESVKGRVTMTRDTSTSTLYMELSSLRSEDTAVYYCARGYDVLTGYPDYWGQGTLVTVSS
Human CGRP receptor
  Human CGRP Receptor IC50: 0.72 nM
Human PAC1 receptor
  Human PAC1 Receptor IC50: 371 nM

B5: iPS:386729 (bispecific antibody, human IgG1, lambda, N297G)
light: QSVLTQPPSVSAAPGQKVTISCSGSSSNIGNNYVSWYQQLPGTAPKLLIYDNNKRPSGIPDRFSGSKSGTSATLAITGLQTGDEADYYCGTWDSRLSAVVFGGGTKLTVLGQPKANPTVTLFPPSSEELQANKATLVCLISDFYPGAVTVAWKADGSPVKAGVETTKPSKQSNNKYAASSYLSLTPEQWKSHRSYSCQVTHEGSTVEKTVAPTECS
heavy: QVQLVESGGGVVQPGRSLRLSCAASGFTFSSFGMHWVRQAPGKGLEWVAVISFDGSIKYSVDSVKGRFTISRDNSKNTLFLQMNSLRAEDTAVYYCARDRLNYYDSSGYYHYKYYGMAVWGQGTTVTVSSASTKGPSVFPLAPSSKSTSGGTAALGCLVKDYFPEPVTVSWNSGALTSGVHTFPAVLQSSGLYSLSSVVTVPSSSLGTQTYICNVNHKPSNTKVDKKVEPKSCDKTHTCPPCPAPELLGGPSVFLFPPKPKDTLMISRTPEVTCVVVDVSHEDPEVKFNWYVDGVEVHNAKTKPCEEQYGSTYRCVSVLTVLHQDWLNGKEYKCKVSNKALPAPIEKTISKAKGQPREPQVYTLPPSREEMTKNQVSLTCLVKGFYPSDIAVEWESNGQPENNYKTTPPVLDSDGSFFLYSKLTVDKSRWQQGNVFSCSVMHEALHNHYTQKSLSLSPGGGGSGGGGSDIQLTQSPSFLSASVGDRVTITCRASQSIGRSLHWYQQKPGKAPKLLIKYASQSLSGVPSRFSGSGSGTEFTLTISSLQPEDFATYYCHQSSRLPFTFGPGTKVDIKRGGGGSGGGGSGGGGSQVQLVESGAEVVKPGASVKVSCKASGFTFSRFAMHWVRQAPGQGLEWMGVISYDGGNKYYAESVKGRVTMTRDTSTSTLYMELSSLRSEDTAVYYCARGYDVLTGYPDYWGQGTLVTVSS
Human CGRP receptor
  Human CGRP Receptor IC50: 0.47 nM
Human PAC1 receptor
  Human PAC1 Receptor IC50: 565 nM

B6: iPS:386731 (bispecific antibody, human IgG1, lambda, N297G)
light: QSVLTQPPSVSAAPGQKVTISCSGSSSNIGNNYVSWYQQLPGTAPKLLIYDNNKRPSGIPDRFSGSKSGTSTTLGITGLQTGDEADYYCGTWDSRLSAVVFGGGTKLTVLGQPKANPTVTLFPPSSEELQANKATLVCLISDFYPGAVTVAWKADGSPVKAGVETTKPSKQSNNKYAASSYLSLTPEQWKSHRSYSCQVTHEGSTVEKTVAPTECS
heavy: not shown
Human CGRP receptor
  Human CGRP Receptor IC50: 0.4 nM
Human PAC1 receptor
  Human PAC1 Receptor IC50: 347 nM

B7: iPS:386733 (bispecific antibody, human IgG1, lambda, N297G)
light: QSVLTQPPSVSAAPGQKVTISCSGSSSNIGNNYVSWYQQLPGTAPKLLIYDNNKRPSGIPDRFSGSKSGTSATLAITGLQTGDEADYYCGTWDSRLSAVVFGGGTKLTVLGQPKANPTVTLFPPSSEELQANKATLVCLISDFYPGAVTVAWKADGSPVKAGVETTKPSKQSNNKYAASSYLSLTPEQWKSHRSYSCQVTHEGSTVEKTVAPTECS
heavy: not shown
Human CGRP receptor
  Human CGRP Receptor IC50: 0.34 nM
Human PAC1 receptor
  Human PAC1 Receptor IC50: 74.3 nM

B8: iPS:386736 (bispecific antibody, human IgG1, kappa, N297G)
light: DIQLTQSPSFLSASVGDRVTITCRASQSIGRSLHWYQQKPGKAPKLLIKYASQSLSGVPSRFSGSGSGTEFTLTISSLQPEDFATYYCHQSSRLPFTFGPGTKVDIKRTVAAPSVFIFPPSDEQLKSGTASVVCLLNNFYPREAKVQWKVDNALQSGNSQESVTEQDSKDSTYSLSSTLTLSKADYEKHKVYACEVTHQGLSSPVTKSFNRGEC
heavy: not shown
Human CGRP receptor
  Human CGRP Receptor IC50: 0.9 nM
Human PAC1 receptor
  Human PAC1 Receptor IC50: 5.43 nM

B9: iPS:386738 (bispecific antibody, human IgG1, kappa, N297G)
light: DIQLTQSPSFLSASVGDRVTITCRASQSIGRSLHWYQQKPGKAPKLLIKYASQSLSGVPSRFSGSGSGTEFTLTISSLQPEDFATYYCHQSSRLPFTFGPGTKVDIKRTVAAPSVFIFPPSDEQLKSGTASVVCLLNNFYPREAKVQWKVDNALQSGNSQESVTEQDSKDSTYSLSSTLTLSKADYEKHKVYACEVTHQGLSSPVTKSFNRGEC
heavy: not shown
Human CGRP receptor
  Human CGRP Receptor IC50: 0.74 nM
Human PAC1 receptor
  Human PAC1 Receptor IC50: 5.09 nM

B10: iPS:386740 (bispecific antibody, human IgG1, kappa, N297G)
light: DIQLTQSPSFLSASVGDRVTITCRASQSIGRSLHWYQQKPGKAPKLLIKYASQSLSGVPSRFSGSGSGTEFTLTISSLQPEDFATYYCHQSSRLPFTFGPGTKVDIKRTVAAPSVFIFPPSDEQLKSGTASVVCLLNNFYPREAKVQWKVDNALQSGNSQESVTEQDSKDSTYSLSSTLTLSKADYEKHKVYACEVTHQGLSSPVTKSFNRGEC
heavy: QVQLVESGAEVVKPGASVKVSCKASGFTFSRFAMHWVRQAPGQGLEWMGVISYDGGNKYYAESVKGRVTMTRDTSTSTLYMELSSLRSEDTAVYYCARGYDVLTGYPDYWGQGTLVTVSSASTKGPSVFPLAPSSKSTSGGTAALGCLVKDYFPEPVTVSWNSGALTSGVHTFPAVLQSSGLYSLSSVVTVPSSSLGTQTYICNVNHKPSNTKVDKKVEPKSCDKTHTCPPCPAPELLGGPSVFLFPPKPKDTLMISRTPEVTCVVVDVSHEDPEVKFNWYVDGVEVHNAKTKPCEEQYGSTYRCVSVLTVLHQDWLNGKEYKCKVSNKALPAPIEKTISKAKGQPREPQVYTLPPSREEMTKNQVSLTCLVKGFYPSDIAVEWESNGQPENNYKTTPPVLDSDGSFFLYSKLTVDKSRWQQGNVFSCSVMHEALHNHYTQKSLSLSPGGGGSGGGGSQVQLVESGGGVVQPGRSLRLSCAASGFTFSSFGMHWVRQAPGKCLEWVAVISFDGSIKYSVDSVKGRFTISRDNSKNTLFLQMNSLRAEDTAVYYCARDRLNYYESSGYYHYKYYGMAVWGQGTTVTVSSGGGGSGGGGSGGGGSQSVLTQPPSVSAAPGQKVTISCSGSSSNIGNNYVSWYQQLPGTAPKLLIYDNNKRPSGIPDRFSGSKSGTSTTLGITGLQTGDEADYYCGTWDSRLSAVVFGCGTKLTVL
Human CGRP receptor
  Human CGRP Receptor IC50: 0.56 nM
Human PAC1 receptor
  Human PAC1 Receptor IC50: 4.4 nM

B11: iPS:386742 (bispecific antibody, human IgG1, kappa, N297G)
light: DIQLTQSPSFLSASVGDRVTITCRASQSIGRSLHWYQQKPGKAPKLLIKYASQSLSGVPSRFSGSGSGTEFTLTISSLQPEDFATYYCHQSSRLPFTFGPGTKVDIKRTVAAPSVFIFPPSDEQLKSGTASVVCLLNNFYPREAKVQWKVDNALQSGNSQESVTEQDSKDSTYSLSSTLTLSKADYEKHKVYACEVTHQGLSSPVTKSFNRGEC
heavy: not shown
Human CGRP receptor
  Human CGRP Receptor IC50: 0.61 nM
Human PAC1 receptor
  Human PAC1 Receptor IC50: 6.39 nM

B12: iPS:386744 (bispecific antibody, human IgG1, kappa, N297G)
light: DIQLTQSPSFLSASVGDRVTITCRASQSIGRSLHWYQQKPGKAPKLLIKYASQSLSGVPSRFSGSGSGTEFTLTISSLQPEDFATYYCHQSSRLPFTFGPGTKVDIKRTVAAPSVFIFPPSDEQLKSGTASVVCLLNNFYPREAKVQWKVDNALQSGNSQESVTEQDSKDSTYSLSSTLTLSKADYEKHKVYACEVTHQGLSSPVTKSFNRGEC
heavy: not shown
Human CGRP receptor
  Human CGRP Receptor IC50: 0.61 nM
Human PAC1 receptor
  Human PAC1 Receptor IC50: 3.63 nM

B13: iPS:386746 (bispecific antibody, human IgG1, kappa, N297G)
light: DIQLTQSPSFLSASVGDRVTITCRASQSIGRSLHWYQQKPGKAPKLLIKYASQSLSGVPSRFSGSGSGTEFTLTISSLQPEDFATYYCHQSSRLPFTFGPGTKVDIKRTVAAPSVFIFPPSDEQLKSGTASVVCLLNNFYPREAKVQWKVDNALQSGNSQESVTEQDSKDSTYSLSSTLTLSKADYEKHKVYACEVTHQGLSSPVTKSFNRGEC
heavy: not shown
Human CGRP receptor
  Human CGRP Receptor IC50: 0.79 nM
Human PAC1 receptor
  Human PAC1 Receptor IC50: 3.28 nM

B14: iPS:386748 (bispecific antibody, human IgG1, kappa, N297G)
light: DIQLTQSPSFLSASVGDRVTITCRASQSIGRSLHWYQQKPGKAPKLLIKYASQSLSGVPSRFSGSGSGTEFTLTISSLQPEDFATYYCHQSSRLPFTFGPGTKVDIKRTVAAPSVFIFPPSDEQLKSGTASVVCLLNNFYPREAKVQWKVDNALQSGNSQESVTEQDSKDSTYSLSSTLTLSKADYEKHKVYACEVTHQGLSSPVTKSFNRGEC
heavy: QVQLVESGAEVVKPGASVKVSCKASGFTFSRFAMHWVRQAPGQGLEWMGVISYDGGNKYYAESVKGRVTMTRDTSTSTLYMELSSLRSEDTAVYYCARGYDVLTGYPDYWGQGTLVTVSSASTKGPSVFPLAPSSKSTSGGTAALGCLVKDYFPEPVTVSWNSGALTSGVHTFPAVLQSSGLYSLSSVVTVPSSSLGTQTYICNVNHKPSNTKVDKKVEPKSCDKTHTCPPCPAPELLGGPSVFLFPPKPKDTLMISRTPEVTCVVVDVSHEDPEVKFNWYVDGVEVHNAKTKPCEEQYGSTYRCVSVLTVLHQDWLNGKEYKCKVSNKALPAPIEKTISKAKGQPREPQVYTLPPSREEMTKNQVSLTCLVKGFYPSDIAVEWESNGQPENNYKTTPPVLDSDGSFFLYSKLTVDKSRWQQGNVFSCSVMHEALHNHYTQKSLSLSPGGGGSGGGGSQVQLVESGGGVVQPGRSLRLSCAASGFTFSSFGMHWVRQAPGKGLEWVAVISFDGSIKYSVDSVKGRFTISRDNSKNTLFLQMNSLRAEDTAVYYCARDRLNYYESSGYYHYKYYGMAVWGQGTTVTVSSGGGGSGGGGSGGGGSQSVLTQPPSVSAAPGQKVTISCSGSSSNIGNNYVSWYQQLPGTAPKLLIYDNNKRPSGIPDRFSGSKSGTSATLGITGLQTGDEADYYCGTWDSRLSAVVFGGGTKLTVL
Human CGRP receptor
  Human CGRP Receptor IC50: 0.63 nM
Human PAC1 receptor
  Human PAC1 Receptor IC50: 2.85 nM

B15: iPS:386750 (bispecific antibody, human IgG1, kappa, N297G)
light: DIQLTQSPSFLSASVGDRVTITCRASQSIGRSLHWYQQKPGKAPKLLIKYASQSLSGVPSRFSGSGSGTEFTLTISSLQPEDFATYYCHQSSRLPFTFGPGTKVDIKRTVAAPSVFIFPPSDEQLKSGTASVVCLLNNFYPREAKVQWKVDNALQSGNSQESVTEQDSKDSTYSLSSTLTLSKADYEKHKVYACEVTHQGLSSPVTKSFNRGEC
heavy: not shown
Human CGRP receptor
  Human CGRP Receptor IC50: 0.58 nM
Human PAC1 receptor
  Human PAC1 Receptor IC50: 4.54 nM

B16: iPS:386752 (bispecific antibody, human IgG1, kappa, N297G)
light: DIQLTQSPSFLSASVGDRVTITCRASQSIGRSLHWYQQKPGKAPKLLIKYASQSLSGVPSRFSGSGSGTEFTLTISSLQPEDFATYYCHQSSRLPFTFGPGTKVDIKRTVAAPSVFIFPPSDEQLKSGTASVVCLLNNFYPREAKVQWKVDNALQSGNSQESVTEQDSKDSTYSLSSTLTLSKADYEKHKVYACEVTHQGLSSPVTKSFNRGEC
heavy: not shown
Human CGRP receptor
  Human CGRP Receptor IC50: 0.62 nM
Human PAC1 receptor
  Human PAC1 Receptor IC50: 6.08 nM

B17: iPS:386754 (bispecific antibody, human IgG1, kappa, N297G)
light: DIQLTQSPSFLSASVGDRVTITCRASQSIGRSLHWYQQKPGKAPKLLIKYASQSLSGVPSRFSGSGSGTEFTLTISSLQPEDFATYYCHQSSRLPFTFGPGTKVDIKRTVAAPSVFIFPPSDEQLKSGTASVVCLLNNFYPREAKVQWKVDNALQSGNSQESVTEQDSKDSTYSLSSTLTLSKADYEKHKVYACEVTHQGLSSPVTKSFNRGEC
heavy: not shown
Human CGRP receptor
  Human CGRP Receptor IC50: 0.54 nM
Human PAC1 receptor
  Human PAC1 Receptor IC50: 5.74 nM

B18: iPS:386756 (bispecific antibody, human IgG1, kappa, N297G)
light: DIQLTQSPSFLSASVGDRVTITCRASQSIGRSLHWYQQKPGKAPKLLIKYASQSLSGVPSRFSGSGSGTEFTLTISSLQPEDFATYYCHQSSRLPFTFGPGTKVDIKRTVAAPSVFIFPPSDEQLKSGTASVVCLLNNFYPREAKVQWKVDNALQSGNSQESVTEQDSKDSTYSLSSTLTLSKADYEKHKVYACEVTHQGLSSPVTKSFNRGEC
heavy: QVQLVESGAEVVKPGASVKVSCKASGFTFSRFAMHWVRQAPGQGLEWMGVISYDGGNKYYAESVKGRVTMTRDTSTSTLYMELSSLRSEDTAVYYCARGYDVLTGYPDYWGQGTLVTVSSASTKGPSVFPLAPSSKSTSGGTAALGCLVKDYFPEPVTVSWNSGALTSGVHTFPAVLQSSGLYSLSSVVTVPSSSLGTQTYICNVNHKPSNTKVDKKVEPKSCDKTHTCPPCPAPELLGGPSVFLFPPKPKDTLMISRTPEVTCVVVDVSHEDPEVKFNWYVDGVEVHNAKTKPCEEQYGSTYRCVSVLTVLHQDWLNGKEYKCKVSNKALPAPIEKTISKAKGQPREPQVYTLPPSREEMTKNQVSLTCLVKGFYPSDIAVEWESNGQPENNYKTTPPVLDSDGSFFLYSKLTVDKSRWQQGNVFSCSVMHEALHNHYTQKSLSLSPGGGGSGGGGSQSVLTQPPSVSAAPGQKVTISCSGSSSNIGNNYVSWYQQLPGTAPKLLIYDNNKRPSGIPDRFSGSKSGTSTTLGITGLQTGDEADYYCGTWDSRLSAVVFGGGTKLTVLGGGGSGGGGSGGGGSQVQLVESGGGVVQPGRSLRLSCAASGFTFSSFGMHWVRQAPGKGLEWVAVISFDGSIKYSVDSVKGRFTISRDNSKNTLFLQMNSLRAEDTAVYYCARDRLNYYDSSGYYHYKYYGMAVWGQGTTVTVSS
Human CGRP receptor
  Human CGRP Receptor IC50: 1.88 nM
Human PAC1 receptor
  Human PAC1 Receptor IC50: 7.29 nM

B19: iPS:386758 (bispecific antibody, human IgG1, kappa, N297G)
light: DIQLTQSPSFLSASVGDRVTITCRASQSIGRSLHWYQQKPGKAPKLLIKYASQSLSGVPSRFSGSGSGTEFTLTISSLQPEDFATYYCHQSSRLPFTFGPGTKVDIKRTVAAPSVFIFPPSDEQLKSGTASVVCLLNNFYPREAKVQWKVDNALQSGNSQESVTEQDSKDSTYSLSSTLTLSKADYEKHKVYACEVTHQGLSSPVTKSFNRGEC
heavy: not shown
Human CGRP receptor
  Human CGRP Receptor IC50: 2.32 nM
Human PAC1 receptor
  Human PAC1 Receptor IC50: 4.11 nM
